How the values were obtained:
[1] = target: T1, human VLA-1 (alpha 1/beta 1, CD49a/CD29) on IL-2 stimulated human PBMC / T cells (human, UniProt P56199 29-1179; P05556 21-798); assay: cell-based or functional assay
[2] = target: T1, human VLA-1 (alpha 1/beta 1, …); assay: cell-based or functional assay; remark: listed apart in the source
[3] = target: T1, human VLA-1 (alpha 1/beta 1, …); assay: cell-based or functional assay; remark: listed apart in the source
[4] = target: T2, mouse VLA-1 on mouse splenocytes (mouse, UniProt Q3V3R4 29-1179; P09055 21-798); assay: FACS on mouse splenocytes
T2 construct: whole, on cells; native protein on primary cells

[5] = target: T1, human VLA-1 (alpha 1/beta 1, …); assay: cell-based or functional assay; remark: listed apart in the source
[6] = target: T3, human VLA-1 α1 subunit (CD49a), full-length, on transfected CHO cells (human, UniProt P56199 29-1179); assay: cell-based or functional assay
[7] = target: T4, human CD49a I domain E48K (human, UniProt P56199 151-364, E48K); assay: ELISA on secreted mutant I domain
T4 construct: domain: I domain; not shown: myc and His tags

[8] = target: T5, human CD49a I domain K88N (human, UniProt P56199 151-364, K88N); assay: ELISA on secreted mutant I domain
T5 construct: domain: I domain; not shown: myc and His tags

[9] = target: T6, human CD49a I domain I11F (human, UniProt P56199 151-364, I11F); assay: ELISA on secreted mutant I domain
T6 construct: domain: I domain; not shown: myc and His tags

[10] = target: T7, human CD49a I domain S162H (human, UniProt P56199 151-364, S162H); assay: ELISA on secreted mutant I domain
T7 construct: domain: I domain; not shown: myc and His tags

[11] = target: T8, human CD49a I domain with residues 91-96 VQRGGR replaced by mouse GRRGGL (human, UniProt P56199 151-364, V91G; Q92R; R96L); assay: ELISA on secreted mutant I domain
T8 construct: domain: I domain; also called V91G, Q92R, R96L; not shown: myc and His tags

[12] = target: T9, human CD49a I domain K142Q (human, UniProt P56199 151-364, K142Q); assay: ELISA on secreted mutant I domain
T9 construct: domain: I domain; text prints KI42Q once; not shown: myc and His tags

[13] = target: T10, human CD49a I domain T204A (human, UniProt P56199 151-364, T204A); assay: ELISA on secreted mutant I domain
T10 construct: domain: I domain; not shown: myc and His tags

[14] = target: T11, human CD49a I domain E66A (human, UniProt P56199 151-364, E66A); assay: ELISA on secreted mutant I domain
T11 construct: domain: I domain; not shown: myc and His tags

[15] = target: T3, human VLA-1 α1 subunit (CD49a), …; assay: cell-based or functional assay; remark: listed apart in the source
[16] = target: T1, human VLA-1 (alpha 1/beta 1, …); assay: FACS on IL-2 stimulated human PBMC
[17] = target: T3, human VLA-1 α1 subunit (CD49a), …; assay: FACS on CHO-α1 cells

| Binder | % adhesion of IL-2 activated T cells to collagen IV vs no antibody, 10 µg/ml, +PMA [1] [%] | % adhesion of IL-2 activated T cells to collagen IV vs no antibody, 10 µg/ml, -PMA [1] [%] | % adhesion of T cells to collagen IV vs no antibody, 0.5 nM mAb, 10 ng/ml PMA [2] [%] | % adhesion of T cells to collagen IV vs no antibody, 5 nM mAb, 10 ng/ml PMA [2] [%] | % adhesion of T cells to collagen IV vs no antibody, 0.5 nM mAb, no PMA [3] [%] | binding result [4] | T cell adhesion to immobilized collagen IV, relative estimated IC50 [5] [nM] | relative inhibition at an optimal concentration, CHO-VLA-1 adhesion to collagen IV [6] [%] | binding result [7] | binding result [8] | binding result [9] | binding result [10] | binding result [11] | binding result [12] | binding result [13] | binding result [14] | % adhesion of T cells to collagen IV vs no antibody, 5 nM mAb, no PMA [3] [%] | IC50, adhesion of CHO-VLA-1 cells to collagen IV [15] [nM] | binding result [16] | binding result [17] |
| --- | --- | --- | --- | --- | --- | --- | --- | --- | --- | --- | --- | --- | --- | --- | --- | --- | --- | --- | --- | --- |
| 1.7 (antibody, V domains shown, human IgG2 or IgG4; also called antibody 1.7) VH: QVQLQESGPGLVKPSQTLSLTCTVSGGSISRGNYYWSWIRQHPGKGLEWIGYIFYSGSTYYNPSLKSRVTISVDTSKNQFSLKLSSVTAADTAVYYCARDGYGMDVWGQGTTVTVSS VL: EIVLTQSPGTLSLSPGERATLSCRASQSVSSSYLVWYQQKPGQAPRLLLYDASSRATGIPDRFSGSGSGTDFTLTISRLEPEDFAVYYCQQYGNSPLTFGGGTKVEIK | 33.8 | 57 | 74.5 | 44.1 | 36.9 | binds |  |  |  |  |  |  |  |  |  |  |  |  |  |  |
| 3.9 (antibody, V domains shown, human IgG2 or IgG4) VH: QVQLVESGGGVVQPGRSLRLSCAASGFTFSSYGMHWVRQAPGKGLEWVAVIWYDGSNKYYADSVKGRFTISRDNSKNTLYLQMNSLRAEDTAVYYCARDNGAMVRGVIISYYYGMDVWGQGTTVTVSS VL: SYDLTQPSSVSVSPGQTASIACSGDRLGNKYACWYQQKPGQSPVLVIYKDSKRPSGIPERFSGSNSGNTATLTISGTQAMDEADYYCQAWDSSTVVFGGGTKLTVL | 24.6 | 45.8 | 91.9 | 99.6 | 91.5 |  | > 5 | > 80 | no binding | binds | binds | binds | binds | binds | binds | binds | 68 | 0.38 |  |  |
| 3.40 (antibody, V domains shown, human IgG2 or IgG4) VH: QVQLVESGGGVVQPGRSLRLSCAASGFTFSTYGMHWVRQAPGKGLEWVAVIWYDGSKKYYADSVKGRFAISRDNSKNTLYLQMNSLRAEDTAVYYCARDHTMVRGVINSYYYGMAVWGQGTTVTVSS VL: SYELTQPPSVSVSPGQTASITCSGDRLGNKYACWYQQKTGQSPVLVIYQDSKRPSGIPERFSGSNSGNTATLTISGTQAMDEADYYCQAWDSSTVVFGGGTKLTVL |  |  |  |  |  |  | > 5 |  | no binding | binds | binds | binds | binds | binds | binds | binds |  | 1.3 |  |  |
| 3.2 (antibody, V domains shown, human IgG2 or IgG4) VH: QVQLVESGGGVVQPGRSLRLSCAASGFTFSSYGIHWVRQAPGKGLEWVAVIWYDGSDIYYADSVKGRFTISRDNSKNTLYLQMNSLRAEDTALYYCARESSGWTFDYWGQGTLVTVSS VL: QSALTQPASVSGSPGQSITISCTGTSSDVGGYNYVSWYQQHPGKAPKLMIYEVSNRPSGISNRFSGSKSGNTASLTISGLQAEDEADYYCSSYTSSSTIIFGGGTKLTVL |  |  |  |  |  |  |  |  |  |  |  |  |  |  |  |  |  |  | binds |  |
| 7.38 (antibody, V domains shown, human IgG2 or IgG4) VH: QVQLQESGPGLVKPSETLSLTCTVSGGSFSSYYWSWIRQPAGKGLEWIGRIYTSGSTYYNPSLKSRVTMSVDTSKNQFSLKLNSVTAADTAVYYCAREGYDFWNDYYNYYYGMDVWGQGTTVTVS VL: EIVLTQSPGTLSLSPGERATLSCRASQSVSSRYLAWYQQKPGQAPRLLIYGASSRATGIPDRFSGSGSGTDFTLTISRLEPEDFAVYYCQQYGSAFTFGGGTKVEIK |  |  |  |  |  |  |  |  |  |  |  |  |  |  |  |  |  |  |  | binds |

— patent US20060286112A1 (published 2006)
